Reference: the DeepSol protein solubility set

Experiment: soluble on expression in E. coli; label from the status in PepcDB or PDB records

With “MKRCLDKGKTMDALKHALQMLNEMRTAELSPKFYYRLYMDSMHELQCLEVNLVQEYAQEPAKLGNLYECVQYASAIIPRLYLLVTIGGVFIKCGLGSRKEILKDLVEMCRGVQHPLRGLFLRNYLMQCTRSVLPDFPETEEMLVAHNDNLSKGTPKLKPRDGTVDDTIDFVLINFAEMNKLWVRMQHQGPSKEKEKREKDRMELRILVGTNLVRLAQLEALTEEMYVKDVLPSILEQIVSCRDPISQEYLMECVIQVFADDFHLATLTEFLNACGQLQQDVNIKILLIALVDRLALYTTSYNEGQPAPTKMQLFEIFSEQATTLIKNRPDMPLDDIVALHVSLVSLAVKCYPDRQDYANMTFQGLRQVIEEKGVTDIEAFGKVGRELTKLLNIPIDEYKNVLRLSQLPEYIKVMNYFDYRGQCNIASYMIQNMLEEETVFRNQDDVDSAFSLISSLLKDQEKQSSDSHETEEFADEQNLVARLLHLIRADDVDSQFLLLNSARKTLGEGGRHRLRYTLPPIIFELYRLVLQFSDMKDEDDKWDAKIRKMFVCAMGTIGALVSTAELAELPMKLYLNGAITADRVPFEDNHTVVYEFVSKALSILEDDVVDSRDRVRCLHLTVGTLLKTTHLPEENWQPLANQTVLAAAKMFKKPDQVRSLVTVAALYWHGQTLETNGEKMKNGKKVVDILRKAAKIARECLEPLVQQQLFIQLLSAYTYYYEDNCSEVNVDHIEELIARTQDNAVQLDVSAEADSLEKQLGEAIRRLQLAKLDVAAAQATTIRSEPELPQPPS” as the sequence, how does the “soluble on expression in E. coli” value read?
Its value is “soluble”.

Which “soluble on expression in E. coli” value does the source give for “MIDLHTHTIFSDGELIPSELVRRAVIHGYEAIALTDHADYTNLEQLLDAAKKAKYLEEEWDIRVLSGVELTHVPPRKIAPMAKKAKELGAEIVVVHGETISEPVAQGTNAASAACEYVDILAHPGLISEEDVRTAAENNVFLELTARNGHNRTNGHVARLALEFGATLVVNTDTHAPENLITDETALKIAMGAGL” here?
Its value is “not soluble”.

Which “soluble on expression in E. coli” value does the source give for “SFWGWLNAVFNKVDHDRIRDVGPDRAASEWLLRCGAMVRYHGQQRWQKDYNHLPTGPLDKYKIQAIDATDSCIMSIGFDHMEGLQYVEKIRLCKCHYIEDGCLERLSQLENLQKSMLEMEIISCGNVTDKGIIALHHFRNLKYLFLSDLPGVKEKEKIVQAFKTSLPSLELKLDLK” here?
Its value is “soluble”.

Which “soluble on expression in E. coli” value does the source give for “MHHHHHHSSGVDLGTENLYFQSMVDATRVPMDERFRTLKKKLEEGMVFTEYEQIPKKKANGIFSTAALPENAERSRIREVVPYEENRVELIPTKENNTGYINASHIKVVVGGAEWHYIATQGPLPHTCHDFWQMVWEQGVNVIAMVTAEEEGGRTKSHRYWPKLGSKHSSATYGKFKVTTKFRTDSVCYATTGLKVKHLLSGQERTVWHLQYTDWPDHGCPEDVQGFLSYLEEIQSVRRHTNSMLEGTKNRHPPIVVHCSAGVGRTGVLILSELMIYCLEHNEKVEVPMMLRLLREQRMFMIQTIAQYKFVYQVLIQFLQNSRLI” here?
The value was “soluble”.

Which “soluble on expression in E. coli” value does the source give for “MGGSHHHHHHGMASETGPEDPSSMPEESSPRRTPQSIPYQDLPHLVNADGQYLFCRYWKPTGTPKALIFVSHGAGEHSGRYEELARMLMGLDLLVFAHDHVGHGQSEGERMVVSDFHVFVRDVLQHVDSMQKDYPGLPVFLLGHSMGGAIAILTAAERPGHFAGMVLISPLVLANPESATTFKVLAAKVLNLVLPNLSLGPIDSSVLSRNKTEVDIYNSDPLICRAGLKVCFGIQLLNAVSRVERALPKLTVPFLLLQGSADRLCDSKGAYLLMELAKSQDKTLKIYEGAYHVLHKELPEVTNSVFHEINMWVSQRTATAGTASPP” here?
Its value is “not soluble”.

Which “soluble on expression in E. coli” value does the source give for “MSLKNPPQILMPDVVYTDLKKPILVHIKDDESSIKNVQIILHKDDNTSAMVIADEKISNLKDITLQVALPKFGYKENVKSFVLEVIAKDSSFWNFFSGNEARKQIAVLVDNTAPKINIISNSYQIEQGGAGAVVFKADDANLDKVYIETNKGKIFKATPYVKEGYYAALIAWDARDEEFRAFVIATDKAGNISKERIRYYFVNRKYRVSNINLTDKFLDGKIENLANQYAPKDNNLNRYEKFKFVNETLRNSNEKLIHEITSKVPEEKIDNFDLNLFLPLKNGMKVADFADHRYYSYNGQFVSDSYHMGLDLASVAQAPIISNNAGKVVFAAENGIYGLNLIVYHGFGVYSLYGHCSSKNVDLDEMINKQSIIGKTGTSGLALGDHLHFGVLVQGVETRPEQWQDKKWIENNIYNVLNDGKKIILGKNEGHHHHHH” here?
The value was “soluble”.

With “SLIENSHVKKDDIWPSGGQMTVKDLTAKYTEGGNAILENISFSISPGQRVGLLGRTGSGKSTLLSAFLRLLNTEGEIQIDGVSWDSITLQQWRKAFGVIPQKVFIFSGTFRKNLDPYEQWSDQEIWKVADEVGLRSVIEQFPGKLDFVLVDGGCVLSHGHKQLMCLARSVLSKAKILLLDQPSAHLDPVTYQIIRRTLKQAFADCTVILCEHRIEAMLECQQFLVIEENKVRQYDSIQKLLNERSLFRQAISPSDRVKLFPHRNSSKCKSKPQIAALKEETEEEVQDTRLENLYFQGDKDCEMKRTTLDSPLGKLELSGCEQGLHEIKLLGKGTSAADAVEVPAPAAVLGGPEPLMQATAWLNAYFHQPEAIEEFPVPALHHPVFQQESFTRQVLWKLLKVVKFGEVISYQQLAALAGNPAATAAVKTALSGNPVPILIPCHRVVSSSGAVGGYEGGLAVKEWLLAHEGHRLGKPGLG” as the sequence, how does the “soluble on expression in E. coli” value read?
The value was “soluble”.

Which “soluble on expression in E. coli” value does the source give for “MIITVASFKGGVGKTTTAVHLSAYLALQGETLLIDGDPNRSATGWGKRGSLPFKVVDERQAAKYAPKYQNIVIDTQARPEDEDLEALADGCDLLVIPSTPDALALDALILTIETLQKLGNNRFRILLTIIPPYPSKDGDEARQLLTTAGLPLFKRGIKRYSAFQKASLNGVVVSEVSDSKAGIAWSDYKATGKEIVEEILILEHHHHHH” here?
The value was “soluble”.

With “MICFCAERFQWRRLWQIPGDLLFPGPADMARALLYRRPTEPSTIPVRHGSQFFAVRIRRHRRARRYTLRIHPSDREAILTMPPRGTLADAKEFAQRHGAWIAARLGRLPKAAPFLPGTLVPLRGHDHKIVHRTGRGTVWTEVRESGEKILCVAGETEHIERRVLDFLKREARKDLQKACDRYAPELGVKVTRLSIRDQSSRWGSCTSAGSLSFSWRLILAPSYVLDYLAAHEVAHLVEMNHSARFWRVVGKVCPQMERAKTWLDSYGNDLHRYGISDLEHHHHHH” as the sequence, how does the “soluble on expression in E. coli” value read?
Its value is “soluble”.

With “MSLGYLEAAPYGINAPFAWEVQGGKGSGITFVDMEYGWLLNHEDLVHQNIELMSGINIDQHVGHGTSVLGIVSSEDNEVGNIGIAPKAKAKVISQIRDNGQYNTADAILSAVNQLEAGDVLLLEAQASFDGYGDKYLPVEVQPDIFDAIRAGTDKGVVIIEAGANGWNDLDQFKDRNGKQILNRNSKDFKDSGAIMVGAGSSSFPHERMWFSNYGSRIDVYGWGENVDTTTAEQSRSAVNLYTSSFSGTSSASPIIAGAATLVQSIAKENLGQPYRPSELRAILSNENTGTKSKDPYADQIGVLPDLKSILVNLGYGQRKPNGGNELQVTENEPNNERIQANKVNFHTPMKGTLHNSDRVDVFTFQMDSPENITISLLNEQNIGMTWVLHHESDLNNYVAYGENEGNVVKGTYHAKPGKYYLYVYKYENKDGSYVLNIKEGHHHHHH” as the sequence, how does the “soluble on expression in E. coli” value read?
Its value is “soluble”.

With “MSLTNLHYTVKSLMRFKDKTVIISGGGNSAIDWANELEPIAKKVYLTYRKEALNGHEAQISQLLSSSATCLFHTTISKLIARDNKEVIEQVELTDHQTGEVTNLAVDEVIINHGYERDKSLLDQSEVTLDRIDDYYIAGTPTSATSVGGIYAAGDVLKHEGKLHLIAGAFQDAANAVNQAKQWIEPEAHQSAMVSSHNHVFKERNRELIRQMLKEGHHHHHH” as the sequence, how does the “soluble on expression in E. coli” value read?
The value was “not soluble”.

For “MTQHTRNFSFKVLTINTHKGFTAFNKRFILPELRDAVRTVGADIVCLQEVMGAHEVHPLHIENWPDTTHYEFLADTMWSDFAYGRNAVYPEGHHGNAVLSRYPIEHYENRDVSVGGSEKRGVLYCRITPPMLNRPIHVMCVHLGLRESHRQAQLTMLAGWVNALPESEPVLVAGDFNDWRQKAGPPLNAAGLEEIFTRAHGRPARTFPVSMPLLRLDRIYVKNANASSPTALPLRNWRHLSDHAPLSAEIHL”, which “soluble on expression in E. coli” value is on record?
Its value is “not soluble”.

With “MGSDKIHHHHHHMAKEKKSRDTQKKIFVLDTSVIIYDHNAVKNFEEHDLAIPITVLEELDNFKKGNDIKNFEAREFTRFLDELAADSASLQDWIQLEGRDKGKLKVIMNTHGTKETDAEKIFDDRKNDHKILNAAISVQAENPDKKVILVSKDINLRLKAKSLNIPSEDYNTGKVKDIDLLYTGHTTIENVAPEKINELYEKGYCDIDAIPEQDVSKNHYYILKSVKSSALAYYNPVDKRLEHVGKTPAYGIKPRNAEQAFAIHAVLDPHIKLVSIQGVAGTGKTLIALAATLEQRKDFKQIFLARPIVPLSNKDIGYLPGDIKSKLNPYMEPLFDNLKFIQNQFNETDQDYQRITDMVNKEKLVITPLAYIRGRSLSNIVFIVDEAQNLTPHEVKTIISRAGENCKIIFTGDIFQIDTPYLDSESNGLSYLIDRLKNQDLYAHITLEKGERSELANLANELL” as the sequence, how does the “soluble on expression in E. coli” value read?
Its value is “not soluble”.

For “MGSDKIHHHHHHMSHPEPYFQCNDPALSPAERANWIAVLPLGAHEQHGPHLPFETDTIIAQGVVDRLILALPDTLPVTFLPVEPVGYSVEHMDVFGTRTLTFNEAVERWLGIAETLSGQGIRKLMMLNAHGGNSPLMTVVATEARIRFSMLAVATSWTRFGQPDGLIRPEDKAIDIHGGDIETSVMLALRPDLVAMDKAQNFSSRQSEFAARFTHLRAYGPHAFGWKMADLNPLGVAGNASVATAEKGENLLSHAVHGLVELLWDIHDFDIEKAFELPPHSSYMG”, which “soluble on expression in E. coli” value is on record?
The value was “not soluble”.

For “MVKHIWDSERAAQLPKGVEELVYRSNLIGSDRTVCNWGGGNTSMKTTEKDFRGREIEVMWVKGSGSDLATMKAHNFSGLKLDDIRPLIKRDQMPDEEMVDYLSHCMIDSKHPRPSIETLLHAFLPYKHVDHTHPDAIISICCADNGKQIAEDIYGNRFVWVPYVRPGFTLSKMIAEGVANNPHAELVLMEKHGLVTWGETSETCYQKTISIIQEAEQYINDRINQHEVFGGKRYQPLPEDKRKQILAGIMPVIRGAVSEEKKMILSYDDHDDVLEFVNSVQAPALSQIGAACPDHLVHTKRVPLYIDWNPETQDVHKLADLIKSGVETFTSEYQAYFTRNQQDGDQIFESAPRVILIPGIGMVNTGKSYAMSKVSGALYRRAIAVMKGATALGQFVSLHENESYHVEYWPLELYKLTLAPPEAEFSRKVALITGGAGGIGSAACRRFAAEGGHVIVADLNIEGAQKIAGEINDAYGKGRAMAVKMDVTKEEDVQSAFERAALAYGGIDIVVNNAGLATSSPFDETSLKEWNLNMNVLGTGYFLVAREAFKQMKHQNRGGSMVFVGSKNSVYAGKNASAYSSVKALETHLARCIAAEGGEFGIRVNSVLPDAVLQGSAIWGSSWREERAAAYGIEPDQLEEHYRKRTALLVNIYPEDIAEAIAFFASSKAEKTTGCMITVDGGVPAAFTR”, which “soluble on expression in E. coli” value is on record?
The value was “not soluble”.

With “MGHHHHHHSHKKHNQGKEAAQRVLSQIDVAQKKLQDVSMKFRLFQKPANFEQRLQESKMILDEVKMHLPALETKSVEQEVVQSQLNHCVNLYKSLSEVKSEVEMVIKTGRQIVQKKQTENPKELDERVTALKLHYNELGAKVTERKQQLEKCLKLSRKMRKEMNVLTEWLAATDMELTKRSAVEGMPSNLDSEVAWGKATQKEIEKQKVHLKSITEVGEALKTVLGKKETLVEDKLSLLNSNWIAVTSRAEEWLNLLLEYQKHMETFDQNVDHITKWIIQADTLLDESEKKK” as the sequence, how does the “soluble on expression in E. coli” value read?
The value was “soluble”.

For “MSLRILITGNMGYIGPVVARHLRQQYPDAWLVGLDRGWFAHCLSDPRQLPEVVLDQQWFGDVRDLTAQQLSGFDGVVHLAAISNDAMGKRFEQVTDAINCRASVAVAQAAAQAGVKHFVFASSCSVYGAAADGTPRSESSAVAPLTAYAHSKIDTERALAQLETDMVITCLRFATACGASPRLRLDLVLNDFVASAVANGTVEVLSDGSPWRPLIHVRDMARAIDWALGRTPLAGGRFLAVNAGAEQWNVQIRDLAQAVGAAMPSATVSISTTAPADNRSYRVDFSLFQRLAPQHQPQQTLQSTITELRDDLLRAGFADGDFRQSSDFIRLRILQQLVDSGALAADLRAEGHHHHHH”, which “soluble on expression in E. coli” value is on record?
The value was “soluble”.

For “MRYEALRLLCFFDLPMESKDEKRIYRNFRKELISNGFEMLQFSVYYRTCPNRSFANKFYKKLKMSNLPAGNVRLLAVTEKQFSEMTLIIGGKTKQEEIVSDNKLVIILEHHHHHH”, which “soluble on expression in E. coli” value is on record?
The value was “soluble”.
